Results: the supplement of paper PMC9170038

Tested on: MS2 coat protein
Test: apparent KD of MS2 coat protein; designed switch direction (-1 OFF switch, 1 ON switch): -1; higher = weaker reporter binding
Summary of the method: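 On Illumina chips, designed RNA switches with common flanks were made by stalled E. coli RNA polymerase. Titrations with SNAP-549-labelled MS2 coat protein, doubling from 0.7 or 1.5 nM to 3 µM, were done with no input, with 200 uM small-molecule ligand, or with an oligonucleotide input. Apparent KD is the median per design over clusters, from curve fits of normalised cluster fluorescence.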

[1] = input ligand: microRNA oligo, concentration not stated
[2] = Eterna round: R95, input ligand: FMN 200 uM
[3] = Eterna round: R95, input ligand: microRNA oligo, concentration not stated
[4] = Eterna round: R95, input ligand: none

Sequence | apparent KD of MS2 coat protein (input ligand: FMN 200 uM) | apparent KD of MS2 coat protein [1] | apparent KD of MS2 coat protein (input ligand: none) | apparent KD of MS2 coat protein [2] | apparent KD of MS2 coat protein [3] | apparent KD of MS2 coat protein [4]
AAGAACGUGCAAGGAUAUCUCCACCAAACCGGCAGAGAAGGUGCACAUGAGGAUCACCCAUGUGACCUAAGGCUCUUAUGAGCC [Teismace] (Eterna round: R96, puzzle: Exclusion NG 1) | 46.6 nM | 14.6 nM | 18.5 nM |  |  | 
AAGAAGAAGUAAGGAUAUGAAGAUUUGGUGGUGACAUGAGGAUCACCCAUGUGAAAACAAUAAGAUCAGAAGGUAUAAGAAGAA [AK ExNG2-3] (Eterna round: R96, puzzle: Exclusion NG 2) | 522 nM | 434 nM | 405 nM |  |  | 
AAGAAGACAGGAUAUACAUGAAAGAAAGAAAAGAAAAGAAAACAUGAGGAUCACCCAUGUAGAAGGGUCAAGAA [EteRNA is fun!] (Eterna round: R96, puzzle: Exclusion 2) |  | 35.8 nM |  |  |  | 
AAGAAGAUAGGAUAUACGAGGAGAGGAGAGAAGAGGAGAGGACAUGAGGAUCACCCAUGUAGAAGGAUCAGGAA [JR_Exclu2_Sub062] (puzzle: Exclusion 2) |  |  |  | 28.9 nM | 29.6 nM | 28.5 nM
AAGAAGAUAGGAUAUACGAGGAGAGGAGAGAAGAGGUGAGGACAUGAGGAUCACCCAUGUAGAAGGAUCAGGAA [JR_Exclu2_Sub063] (Eterna round: R96, puzzle: Exclusion 2) | 169 nM | 91 nM | 109 nM |  |  | 
AAGAAGAUAGGAUAUACGAGGAGAGGAGAGAAGAGGUGAGGACAUGAGGAUCACCCAUGUAGAAGGAUCAGGAA [JR_Exclu2_Sub063] (puzzle: Exclusion 2) |  |  |  | 88.7 nM | 266 nM | 176 nM
AAGAAGAUAGGAUAUACGAGGAGAGGAGAGAGAAGGUGAGGACAUGAGGAUCACCCAUGUAGAAGGAUCAGGAA [JR_Exclu2_Sub064] (puzzle: Exclusion 2) |  |  |  | 81.3 nM | 88 nM | 89.9 nM
AAGAGAGCAGGAUAUACAUGAGGAUCACCCAUGUGGGAAAUAAGUGGCGUACCACAAAGUAGAAGGGCUUUCCA [jl-ex3-4.80 Eli automod] (Eterna round: R97, puzzle: Exclusion 3) | 310 nM |  | 86.2 nM |  |  | 
AAGAGCGUAGGAUAUACAUGAGGAUCACCCAUGUGUGGAGGACCUGGCCACAUAAGGAGUAGAAGGGCGCAUCU [Eternabot (L2) Solution 92] (Eterna round: R97, puzzle: Exclusion 3) | 110 nM |  | 87 nM |  |  | 
AAGAGGUCAGGAUAUACGGAGAGAGGGAGUUGGUGAGGGUAACAUGAGGAUCACCCAUGUAGAAGGGACUAAGA [JR_Exclu2_Sub078] (puzzle: Exclusion 2) |  |  |  |  | 22.4 nM | 
AAGAGGUCAGGAUAUACGGGAAGAGAGAGAAGUAGAGGGUAACAUGAGGAUCACCCAUGUAGAAGGGACUAAGA [JR_Exclu2_Sub072] (puzzle: Exclusion 2) |  |  |  | 34.5 nM | 29.6 nM | 33.4 nM
AAGAUGUGAGGAUAUCACGAGAGCGUCACACGGACGCCCUCUGAGAAGGCACAUGAGGAUCACCCAUGUCCAAA [EX4 A.22] (Eterna round: R97, puzzle: Exclusion 4) | 387 nM |  | 65 nM |  |  | 
AAGCUCACACGCUCGUCUUACAUGAGGAUCACCCAUGUCGCCGAGCUUCACAGGCUGAAGCUCAUAUAGGGUCAUGA [Eternabot (L2) Solution 26] (Eterna round: R97, puzzle: Sensor, turn-off variant 1) | 85.1 nM |  | 91.7 nM |  |  | 
AAGGAACAUGAGGAUCACCCAUGUGAGGAUAUGUGAGAAGGAUUUGAGAAGGAGAGGGACAGAAGGCACUAGGA [JR_Exclu1_Sub081] (puzzle: Exclusion 1) |  |  |  |  | 34.7 nM | 
AAGGGUGCCUUUAGAAAGACAUGAGGAUCACCCAUGUAGACUGAGGAUAUCCACUCCUAAGGACCGGAGAAGGCAGUGUAAUGC [Ex NG3 #62] (Eterna round: R96, puzzle: Exclusion NG 3) | 62.1 nM | 18.6 nM | 31.8 nM |  |  | 
AAGGUGUUAGGAUAUCGGAGGUUGAGGCAGACGGGAAUUUUCGAGAAGGAACAUGAGGAUCACCCAUGUAGUAG [JR_Exclu4_Sub038] (puzzle: Exclusion 4) |  |  |  | 19.1 nM | 22.7 nM | 21.3 nM
AAGUACCGUCACGAAAGUGAUGGUACAACAAGCAUGUAAACAUGAGGAUCACCCAUGUCCUCAUAUGCUCGUCUUAU [Sensor 3 - 63] (puzzle: Sensor v3, turn-off variant 2) |  |  |  | 480 nM | 32.5 nM | 533 nM
AAGUACCGUCACGAUAGUGAUGGUACAACAAGCAUGUAAACAUGAGGAUCACCCAUGUCCUCAAUUGCUCGUCUUAU [Sensor 3 - 68] (Eterna round: R96, puzzle: Sensor v3, turn-off variant 2) | 956 nM | 809 nM | 1060 nM |  |  | 
AAGUACCGUCACGAUAGUGAUGGUACAACAAGCAUGUAAACAUGAGGAUCACCCAUGUCCUCAAUUGCUCGUCUUAU [Sensor 3 - 68] (puzzle: Sensor v3, turn-off variant 2) |  |  |  | 692 nM | 570 nM | 842 nM
AAGUACCGUCACGAUAGUGAUGGUACAACAAGUGGUGAAACAUGAGGAUCACCCAUGUCCUCAAUUGCUCGUCUUAU [Sensor 3 - 85] (puzzle: Sensor v3, turn-off variant 2) |  |  |  | 1030 nM | 231 nM | 999 nM
AAGUACCGUCACGAUAGUGAUGGUACAGCAAGCAUGUAAACAUGAGGAUCACCCAUGUCCUCAAUUGCUCGUCUUAU [Sensor 3 - 70] (puzzle: Sensor v3, turn-off variant 2) |  |  |  | 725 nM | 785 nM | 764 nM
AAGUACUACAAGCUUCGGGACAUGAGGAUCACCCAUGUUCGUCUUAUUGAUCUAGGUACGCUGACGUACCUAGAUCA [Mat - Sensor v3 - turn-off var 1 - JL Mod - D12] (puzzle: Sensor v3, turn-off variant 1) |  |  |  | 14.9 nM | 59.4 nM | 14.7 nM
AAGUAGACGGUGAGGAUAUAGGUCGAAUGACCGAUUUAGAAGGCACAUGAGGAUCACCCAUGUGGGUAACGUCG [Brourd's EX4 #30] (Eterna round: R97, puzzle: Brourd's mod of Exclusion 4) | 24.1 nM |  | 27.5 nM |  |  | 
AAGUAUAGAGGAUAUAGUAGGUACUACAUGAGGAUCACCCAUGUUCUUCAUUACGUAUUUCUAGAAGGCUGAUAAA [EX-5 Malc#26] (puzzle: Exclusion 5) |  |  |  | 484 nM | 174 nM | 268 nM
AAGUAUAGAGGAUAUAGUGAGUACUACAUGAGGAUCACCCAUGUUCUUCAAAGCGUACUUCUAGAAGGCUGUUAAA [EX-5 Malc#17] (puzzle: Exclusion 5) |  |  |  | 452 nM | 263 nM | 214 nM
